Literature values in US20130251731A1, “Tau Acetylation in the Pathogenesis of Alzheimers Disease and Other Related Tauopathies” (THE TRUSTEES OF THE UNIVERSITY OF PENNSYLVANIA, priority 2012, published 2013).
Like-named read-outs stand apart in the source and are kept apart here.

System: histones and microtubules

B1: αTAT-1: cytoplasmic α-tubulin acetyltransferase (protein, UniProt Q5SQI0 1-421, looked up)
Alpha-tubulin …: MEFPFDVDALFPERITVLDQHLRPPARRPGTTTPARVDLQQQIMTIIDELGKASAKAQNLSAPITSASRMQSNRHVVYILKDSSARPAGKGAIIGFIKVGYKKLFVLDDREAHNEVEPLCILDFYIHESVQRHGHGRELFQYMLQKERVEPHQLAIDRPSQKLLKFLNKHYNLETTVPQVNNFVIFEGFFAHQHRPPAPSLRATRHSRAAAVDPTPAAPARKLPPKRAEGDIKPYSSSDREFLKVAVEPPWPLNRAPRRATPPAHPPPRSSSLGNSPERGPLRPFVPEQELLRSLRLCPPHPTARLLLAADPGGSPAQRRRTRGTPPGLVAQSCCYSRHGGVNSSSPNTGNQDSKQGEQETKNRSASEEQALSQDGSGEKPMHTAPPQAPAPPAQSWTVGGDILNARFIRNLQERRSTRPW
For B1, the Kcat (Shida et al., 2010) is listed as 0.000617 s⁻¹, the Kcat (substrate as listed (H4-21, H3p19, H3, microtubules)) is listed as 0.000617 s⁻¹ and the Km (substrate as listed (H4-21, H3p19, H3, microtubules), read-out: Km [protein]) is listed as 1.6 µM.
